The target in the assay is purified human vitronectin (Invitrogen) (UniProt P04004). In words: ELISA. As to conditions: 20 nM Vn, read off a plot. In general terms: In an ELISA, binding on a coated surface is turned into a signal by an enzyme label.
UniProt P04004, sequence (P04004 whole entry, looked up): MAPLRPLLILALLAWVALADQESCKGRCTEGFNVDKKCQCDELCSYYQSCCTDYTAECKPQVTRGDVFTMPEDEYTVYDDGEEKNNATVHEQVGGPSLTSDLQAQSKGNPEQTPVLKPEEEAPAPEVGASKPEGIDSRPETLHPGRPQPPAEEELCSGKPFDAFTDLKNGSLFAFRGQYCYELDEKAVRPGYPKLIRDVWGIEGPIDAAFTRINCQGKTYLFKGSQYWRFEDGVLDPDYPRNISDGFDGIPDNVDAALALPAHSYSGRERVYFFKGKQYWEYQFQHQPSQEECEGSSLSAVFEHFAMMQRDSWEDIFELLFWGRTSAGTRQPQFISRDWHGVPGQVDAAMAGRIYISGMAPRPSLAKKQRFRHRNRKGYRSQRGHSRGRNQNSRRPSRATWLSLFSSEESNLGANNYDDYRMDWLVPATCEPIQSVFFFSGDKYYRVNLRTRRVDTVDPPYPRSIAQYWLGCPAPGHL

As to “synthetic peptide of loop 2 of P5 from NTHi 3655 L5A; V8A; S12A”, the response (absorbance at 450 nm) (parent: est. 0.28) worked out at 0.13.
As to “synthetic peptide of loop 2 of P5 from NTHi KR271 I5A”, under “parent: est. 0.12”, the response (absorbance at 450 nm) was found to be 0.1.
Regarding “synthetic peptide of loop 2 of P5 from NTHi P652 V3A; F5A; L7A”, the response (absorbance at 450 nm) (parent: est. 0.97) came to 0.45.
“synthetic peptide of loop 2 of P5 from NTHi KR317 L5A; V8A; Q10A; T11A; R12A”: the response (absorbance at 450 nm) (parent: est. 0.23) was 0.095.

Source of the values: paper PMC12718013.
